From patent US20210363269A1 (ALX ONCOLOGY, published 2021) come the findings set out here.

The target of one test is T1, human SIRP-α v2 (human).
T1 construct: also called Human v2; Human V2
Description: SPR. In short, it runs like this: (§1)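 KD values were derived as kd/ka from apparent rate constants obtained by globally fitting double-referenced data to a simple Langmuir model. The data came from a ProteOn XPR36 biosensor run at 25° C in PBS pH 7.4 with 0.01% Tween-20. There, purified antibodies sat on a GLC chip by amine coupling or on an NLC chip by biotinylated Protein A capture, and SIRP analytes were injected in one-shot kinetic mode at nominal concentrations set from A280 absorbance.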
For orientation: Surface plasmon resonance follows binding to a sensor surface in real time, without labels.

The next test deals with T2, human SIRP-α v1 (human, UniProt P78324 31-149).
T2 construct: also called Human v1; Human V1
T2 sequence (P78324 31-149 limits assumed): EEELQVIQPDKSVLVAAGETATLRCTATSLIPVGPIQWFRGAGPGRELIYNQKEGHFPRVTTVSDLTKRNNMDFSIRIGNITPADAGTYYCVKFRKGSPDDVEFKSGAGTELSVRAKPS
Description: SPR. The procedure, abridged: as §1

Test [1] addresses T3, human SIRP-α v2 D1 domain (human).
T3 construct: also called human v2
Description: SPR, Langmuir fit. The procedure, abridged: (§2)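 Pre-filtered culture media supplied the scFv-Fc antibody clones, which were captured by anti-human IgG Fc amine-coupled (about 4000 RU) to a GLC chip on a ProteOn XPR36. SIRP analytes were flowed in PBS pH 7.4 with 0.01% Tween-20 at 25° C. Interspot and buffer-blank responses were subtracted from the data, which were then fitted to a 1:1 Langmuir model. Dissociation rate constants (koff) were derived from this fitting.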

In test [2] the target is T4, human SIRP-α v1 D1 domain (human, UniProt P78324 31-149).
T4 construct: also called human v1
T4 sequence (P78324 31-149 limits assumed): as above
Description: SPR, Langmuir fit. In short, it runs like this:
as §2

In test [3] the target is T5, cynomolgus SIRP-α D1 domain (cyno2) (cynomolgus monkey, UniProt Q5TFQ8 30-148 (human entry), limits assumed).
T5 chain: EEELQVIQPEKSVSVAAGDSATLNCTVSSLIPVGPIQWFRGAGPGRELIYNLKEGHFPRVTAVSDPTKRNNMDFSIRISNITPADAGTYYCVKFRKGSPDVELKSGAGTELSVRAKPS
Description: SPR, Langmuir fit. The procedure, abridged:
as §2

The target in test [4] is T6, cynomolgus SIRP-α D1 domain (cyno1) (cynomolgus monkey, UniProt Q5TFQ8 30-148 (human entry), limits assumed).
T6 chain: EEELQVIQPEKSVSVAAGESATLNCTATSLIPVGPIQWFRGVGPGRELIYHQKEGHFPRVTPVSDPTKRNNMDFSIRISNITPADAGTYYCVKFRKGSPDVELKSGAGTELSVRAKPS
Description: SPR, Langmuir fit. In short, it runs like this:
as §2

Test [5] deals with T7, mouse 129 SIRP-α D1 domain (mouse (129 strain), UniProt P97797 32-150).
T7 construct: also called m129
T7 chain: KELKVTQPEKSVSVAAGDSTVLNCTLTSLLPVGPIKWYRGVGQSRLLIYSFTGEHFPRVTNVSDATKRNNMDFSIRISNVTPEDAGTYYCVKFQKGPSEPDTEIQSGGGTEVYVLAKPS
Description: SPR, Langmuir fit. The procedure, abridged: as §2

For the next test, the target named is T8, human SIRPβ isoform 1 (human, UniProt O00241 30-148).
T8 construct: also called SIRPb; sirpb1
T8 sequence (O00241 30-148 limits assumed): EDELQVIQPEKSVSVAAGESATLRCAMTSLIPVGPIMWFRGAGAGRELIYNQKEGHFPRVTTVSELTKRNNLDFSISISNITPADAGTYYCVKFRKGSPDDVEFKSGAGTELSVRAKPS
Description: SPR, Langmuir fit. The procedure, abridged: as §2

The target of test [6] is T9, high affinity SIRP-α D1 variant CV1-3.
T9 chain: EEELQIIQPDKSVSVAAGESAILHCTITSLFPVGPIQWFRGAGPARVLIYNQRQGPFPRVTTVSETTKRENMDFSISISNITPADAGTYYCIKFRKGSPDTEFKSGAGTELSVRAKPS
Description: SPR, Langmuir fit. The procedure, abridged: as §2

Test [7] concerns the target T10, C57BL/6 mouse SIRP-α D1 domain (mouse (C57BL/6 strain), UniProt P97797 32-148).
T10 sequence: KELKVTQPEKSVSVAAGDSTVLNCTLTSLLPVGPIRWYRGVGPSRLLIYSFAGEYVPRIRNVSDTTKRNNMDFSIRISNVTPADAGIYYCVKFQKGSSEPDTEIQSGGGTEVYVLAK
Description: SPR, Langmuir fit. In short, it runs like this:
as §2

Another test deals with T11, human SIRPγ isoform 1 (human, UniProt Q9P1W8 29-147).
T11 construct: also called SIRPg; sirpg
T11 sequence (Q9P1W8 29-147 limits assumed): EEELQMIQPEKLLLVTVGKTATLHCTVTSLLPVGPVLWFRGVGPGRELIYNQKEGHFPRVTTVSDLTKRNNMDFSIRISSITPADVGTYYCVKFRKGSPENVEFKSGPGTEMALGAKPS
Description: SPR, Langmuir fit. In short, it runs like this:
as §2

The target of test [8] is T12, NOD mouse SIRP-α D1 domain (mouse (NOD strain)).
T12 chain: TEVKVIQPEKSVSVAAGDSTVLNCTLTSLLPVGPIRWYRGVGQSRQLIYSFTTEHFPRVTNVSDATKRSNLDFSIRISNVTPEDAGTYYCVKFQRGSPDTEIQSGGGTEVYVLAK
Description: SPR, Langmuir fit. In short, it runs like this: as §2

Another test deals with T13, mouse 129 SIRP-α (mouse (129 strain), UniProt P97797 32-150).
T13 construct: also called m129
T13 chain: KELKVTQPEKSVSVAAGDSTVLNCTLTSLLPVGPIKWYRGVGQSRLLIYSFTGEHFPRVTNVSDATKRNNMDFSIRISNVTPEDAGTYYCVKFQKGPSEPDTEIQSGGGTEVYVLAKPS
Description: SPR Koff +/-. The procedure, abridged:
as §1

T3 sequence (chain, as listed by the source limits assumed): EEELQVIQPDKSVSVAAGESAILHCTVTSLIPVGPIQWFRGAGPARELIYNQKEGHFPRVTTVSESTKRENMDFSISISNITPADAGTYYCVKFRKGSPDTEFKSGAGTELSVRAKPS

B1: antibody 175 (antibody, V domains shown)
VH: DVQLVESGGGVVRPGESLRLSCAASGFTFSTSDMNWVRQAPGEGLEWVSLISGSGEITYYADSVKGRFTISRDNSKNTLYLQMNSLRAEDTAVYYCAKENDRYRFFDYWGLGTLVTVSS
VL: ETVLTQSPGILSLSPGERATLTCRASQSVYTYLAWYQEKPGQAPRLLIYGASSRAAGIPDRFSGSGSGTEFTLTISSLQSEDFAVYYCQQYYDRPPLTFGGGTKVEIK
notes: also called S175
The term Kd denotes the constant that tells how readily two partners part at equilibrium. Take B1: the dissociation constant Kd with human SIRP-α v2 worked out at 0.662 nM; with human SIRP-α v1, 0.137 nM.

B2: antibody 189 (antibody, V domains shown)
VH: DVQLVESGGGVVRPGESLRLSCAASGFTFSSSDMNWVRQAPGEGLEWVSLISGSGEITYYADSVKGRFTISRDNSKNTLYLQMNSLRAEDTAIYYCAKENNMYRFFDYWGLGTLVTVSS
VL: ETVLTQSPGTLSLSPGERATLSCRASQSVYTYLAWYQQKPGQPPRLLIHAARNRAAGIPDRFSGSGSGTEFTLTISSLQSEDFAVYYCQQYYDRPPLTFGGGTKVEIK
notes: also called S189
As to B2, the Kd was 1.9 nM with human SIRP-α v2 and 0.31 nM in the test with human SIRP-α v1.

B3: S3 (scFv, V domains shown)
VH: AVTLDESGGGLQTPGGALSLVCKASGFIFSDYGMNWVRQAPGKGLEFVAQITSGSRTYYGAAVKGRATISRDNRQSTVKLQLNNLRAEDTGIYFCARDFGSGVGSIDAWGNGTEVIVSS
VL: ALTQPASVSANLGGTVKITCSGSRGRYGWYQQRSPGSAPVTVIYRDNQRPSNIPSRFSSSTSGSTSTLTITGVQADDESVYFCGSYDGSIDIFGAGTTLTVL
notes: also called clone 3; scFv-Fc form of AB3
Broadly, the koff is the rate constant with which the complex falls apart. A lower koff goes with a long-lived complex. As for B3, the off-rate (koff) is 0.000276 s⁻¹ in [1]; 0.00041 s⁻¹ in test [2]; 0.00174 s⁻¹ in test [3]; 0.00218 s⁻¹ in test [4]; 0.000655 s⁻¹ in [5]; 0.00192 s⁻¹ in the test with human SIRPβ isoform 1. Besides, the koff in [6] was found to be 0.000394 s⁻¹; in test [7] it was 0.00197 s⁻¹; with human SIRPγ isoform 1, 0.000162 s⁻¹; in test [8], 0.00119 s⁻¹.

B4: antibody 3 (antibody, V domains shown)
VH: AVTLDESGGGLQTPGGALSLVCKASGFIFSDYGMNWVRQAPGKGLEFVAQITSGSRTYYGAAVKGRATISRDNRQSTVKLQLNNLRAEDTGIYFCARDFGSGVGSIDAWGNGTEVIVSS
VL: ALTQPASVSANLGGTVKITCSGSRGRYGWYQQRSPGSAPVTVIYRDNQRPSNIPSRFSSSTSGSTSTLTITGVQADDESVYFCGSYDGSIDIFGAGTTLTVL
notes: also called AB3; S3
B4: the Kd is 0.0767 nM in the test with human SIRP-α v2 and 0.162 nM with human SIRP-α v1.

B5: antibody 218 (antibody, V domains shown)
VH: DVQLVESGGGVVRPGESLTLSCTASGFTFTSSTMNWVRQAPGEGLDWVSSISTSGVITYYADSVKGRATISRDNSKNTLYLRLFSLRADDTAIYYCATDTFDHWGPGTLVTVSS
VL: ALTQPASVSANPGETVKITCFGSSGNYGWFQQKSPGSAPVTVIHYNNKRPSDIPSRFSGSKSGSTGTLTITGVRAEDEAVYFCGAWETGSATFGAGTTLTVL
notes: also called AB218; S218
As for B5, the Kd with human SIRP-α v2 came to 0.276 nM; with human SIRP-α v1 it was 0.123 nM.

B6: antibody 16 (antibody, V domains shown)
VH: DVQLVESGGGVVRPGESLRLSCAVSGFRFSSYAMSWVRQAPGKGLEWVSGISSGGDTYYVDSVKGRFTISRDNSKNTLYLQVNSLTAEDTAIYYCARETWNHLFDYWGLGTLVTVSS
VL: ALTQPASVSANLGETVKITCSGGDSSSHYYGWYQQKSPGSAPVTVIYSDDERPSDIPSRFSGSASGSTATLTITGVRVEDEAIYYCGAYDGSTYANTFGAGTTLTVL
notes: also called S16
Take B6: the equilibrium dissociation constant (Kd) in the test with human SIRP-α v2 and with human SIRP-α v1 was below 0.001 nM in each case.

B7: antibody 73 (antibody, V domains shown)
VH: DVQLVESGGGVVRPGESLRLSCEASGFTFSSNAMSWARQAPGKGLEWVAGISSGSDTYYGDSVKGRLTISRDNSKNILYLQMNSLTAEDTAVYYCARETWNHLFDYWGLGTLVTVSS
VL: ALTQPASVSANPGETVKITCSGGIYSSYYYAWYQQKSPGSAPVTLIYSDDKRPSNIPSRFSGSASGSTATLTITGVRAEDEAVYFCGGYDQSSYTNPFGAGTTLTVL
notes: also called S73
B7: the equilibrium dissociation constant (Kd) with human SIRP-α v2 and with human SIRP-α v1 was below 0.001 nM in each case.

B8: antibody 163 (antibody, V domains shown)
VH: DVQLVESGGGLVRPGESLRLSCAASGFTFTNYAVTWVRQAPGEGLEWVSLISVTGTTYYADSVKGRFTISRDNSKSTLYLQMNGLRAEDTAVYYCAKVTWKNVFDYWGLGTLVTVSS
VL: EIVLTQSPGTLSVSPGERATFSCRASQTVGSKLAWYQQKPGQAPRLLIYDANTRATGIPARFSGSGSGTEFTLTISSLQSEDFAVYYCQQHTDWPPYTFGGGTKVEIK
notes: also called S163
In the case of B8, the binding result in the test with mouse 129 SIRP-α is “no binding”.

B9: antibody 164 (antibody, V domains shown)
VH: DVQLVESGGGLVRPGESLRLSCAASGFTFTNYAVTWVRQAPGEGLEWVSLISVTGTTYYADSVKGRFTISRDNSKSTLYLQMNGLRAEDTAVYYCAKVTWKNVFDYWGLGTLVTVSS
VL: EIVLTQSPGTLSVSPGERATFSCRASQTVGSKLAWYQQKPGQAPRLLIYDANTRATGIPARFSGSRSGTEFTLTISSLQSEDFAVYYCQQHTDWPPYTFGGGTKVEIK
notes: also called S164
B9: the binding result in the test with mouse 129 SIRP-α is “no binding”.

B10: antibody 162 (antibody, V domains shown)
VH: DVQLVESGGGLVRPGESLRLSCAASGFTFTNYAVTWVRQAPGEGLEWVSLISVTGTTYYADSVKGRFTISRDNSKSTLYLQMNSLRAEDTAVYYCAKVTWKNVFDYWGLGTLVTVSS
VL: EIVLTQSPGTLSVSPGERATFSCRASQTVGSKLAWYQQKPGQAPRLLIYDANTRATGIPARFSGSGSGTEFTLTISSLQSEDFAVYYCQQHTDWPPYTFGGGTKVEIK
notes: also called S162
On to B10, for which the binding result with mouse 129 SIRP-α was “no binding”.

B11: antibody 201 (antibody, V domains shown)
VH: DVQLVESGGAVVRPGETLRLSCTASGFTFSSYAMSWVRQAPGKGLEWVSGISASGSDTYYADSVKGRSTISRDNSKNTLYLRMSSLTAEDTAVYYCARETWNHLFDYWGLGTLVTVSS
VL: ALTQPASVSANPGETVKITCSGGGTSSYYGWYQQKSPGSAPVTLIHSDDKRPSDIPSRFSGSASGSTATLTITGVQVEDEAVYYCGGYDYTTYVNTFGAGTTLTVL
notes: also called S201
B11: the results for the Kd with human SIRP-α v2 and with human SIRP-α v1 were 0.00487 nM and below 0.001 nM, respectively.

B12: antibody 202 (antibody, V domains shown)
VH: DVQLVESGGGVVRPGESLRLSCAASGFTFSSYAMSWVRQAPGKGLEWLAGISAGGSDTYYIDSVKGRFTISRDNSKNSLYLQMNSLTAEDTAVYYCARETWNHLFDYWGLGTLVTVSS
VL: ALTQPASVSANPGETVKITCSGGGYYSTYYGWYQQRSPGSAPVTVIHSDDKRPSDIPSRFSGSASGSAATLTITGVRVEDEAVYYCAGYDGRTYLNTFGAGTTLTVL
notes: also called S202
With B12, the dissociation constant (Kd) with human SIRP-α v2 and with human SIRP-α v1 was below 0.001 nM each time.

B13: antibody 191 (antibody, V domains shown)
VH: DVQLVESGGGVVRPGESLRLSCAASGFSFSSYAMNWVRQAPGEGLEWVSRINSGGGGTDYAESVKGRFTISRDNSENTLYLQMNSLRAEDTAVYYCAKQYDWNGFFDYWGLGALVTVSS
VL: ETVLTQSPATLSVSPGERATLSCRASQTVGSKLAWHQQKPGQAPRLLIYDATNRATGIPDRFSGSGSGTDFTLTISGLQTEDSAVYYCQQYYYWPPYRFGGGTKVEIK
notes: also called S191
Turning to B13, in the test with mouse 129 SIRP-α, the binding result is reported as “no binding”.

B14: antibody 198 (antibody, V domains shown)
VH: DVQLVESGGGVVRPGESLRLSCAASGFSFSSHAMNWVRQAPGEGLEWVSRINSGGGGTDYAESVKGRFTISRDNSENTLYLQMNSLRAEDTAVYYCAKQYDWNGFFDYWGLGALVTVSS
VL: ETVLTQSPATLSVSPGERATLSCRASQTVGSKLAWHQQKPGQAPRLLIYDATNRATGIPDRFSGSGSGTDFTLTISSLQTEDSAVYYCQQYYYWPPYRFGGGTKVEIK
notes: also called S198
Take B14: in the test with mouse 129 SIRP-α, the binding result is “no binding”.
